Each block holds one substance with its values, some of them ahead of it.
What was measured:
[1] = biological target: biotinylated recombinant human UNC5B (human) (UniProt Q8IZJ1); assay: AVEXIS, prey on bait UNC5B; white = No binding
Islr2, AVEXIS protein = assay: method not stated; the filers' own unpublished determination ('in preparation'), used to calibrate the AVEXIS screen
[2] = biological target: human DRAXIN, AVEXIS prey or bait protein (human) (UniProt Q8NBI3); assay: AVEXIS, prey on bait hDRAXIN, lower value; black = Binding
[3] = biological target: human DRAXIN, AVEXIS prey or bait protein (human) (UniProt Q8NBI3); assay: AVEXIS, prey on bait hDRAXIN, upper value; black = Binding
[4] = biological target: zebrafish DraxinA, AVEXIS prey or bait protein (zebrafish) (UniProt Q4V9H3); assay: AVEXIS, prey on bait zDraxinA, lower value; black = Binding
[5] = biological target: zebrafish DraxinA, AVEXIS prey or bait protein (zebrafish) (UniProt Q4V9H3); assay: AVEXIS, prey on bait zDraxinA, upper value; black = Binding
[6] = biological target: zebrafish DraxinB, AVEXIS protein (zebrafish); assay: AVEXIS, prey on bait zDraxinB, lower value; black = Binding
[7] = biological target: zebrafish DraxinB, AVEXIS protein (zebrafish); assay: AVEXIS, prey on bait zDraxinB, upper value; black = Binding
[8] = biological target: human Netrin1, recombinant AVEXIS protein (biotinylated when immobilised) (human) (UniProt O95631); assay: AVEXIS, prey on bait hNETRIN1, lower value; white = No binding
[9] = biological target: human Netrin1, recombinant AVEXIS protein (biotinylated when immobilised) (human) (UniProt O95631); assay: AVEXIS, prey on bait hNETRIN1, upper value; white = No binding
[10] = biological target: zebrafish Netrin1a, AVEXIS bait or prey protein (zebrafish); assay: AVEXIS, prey on bait zNetrin1a, lower value; white = No binding
[11] = biological target: zebrafish Netrin1a, AVEXIS bait or prey protein (zebrafish); assay: AVEXIS, prey on bait zNetrin1a, upper value; white = No binding
[12] = biological target: biotinylated recombinant human DCC (human) (UniProt P43146); assay: AVEXIS, prey on bait DCC; white = No binding
[13] = biological target: zebrafish Netrin1a, AVEXIS bait or prey protein (zebrafish); assay: AVEXIS, prey on bait zNetrin1a, lower value; grey = Weak binding
[14] = biological target: zebrafish Netrin1a, AVEXIS bait or prey protein (zebrafish); assay: AVEXIS, prey on bait zNetrin1a, upper value; grey = Weak binding
[15] = biological target: human Netrin1, recombinant AVEXIS protein (biotinylated when immobilised) (human) (UniProt O95631); assay: AVEXIS, prey on bait NTN1; dark = Binding
[16] = biological target: human Netrin-3, AVEXIS protein (human) (UniProt O00634); assay: AVEXIS, prey on bait NTN3; white = No binding
[17] = biological target: human Netrin-4, AVEXIS protein (human) (UniProt Q9HB63); assay: AVEXIS, prey on bait NTN4; white = No binding
[18] = biological target: human Netrin-G1, AVEXIS protein (human) (UniProt Q9Y2I2); assay: AVEXIS, prey on bait NTNG1; white = No binding
[19] = biological target: human Netrin-G2, AVEXIS protein (human) (UniProt Q96CW9); assay: AVEXIS, prey on bait NTNG2; white = No binding
[20] = biological target: human DRAXIN, AVEXIS prey or bait protein (human) (UniProt Q8NBI3); assay: AVEXIS, prey on bait DRAXIN; white = No binding
[21] = biological target: human DRAXIN 21 amino acid Netrin binding fragment, AVEXIS prey or bait protein (human); assay: AVEXIS, prey on bait DRAXIN 21aa; white = No binding
[22] = biological target: Matn4 ECD, mono-biotinylated bait protein (positive control); assay: AVEXIS, prey on bait Matn4 (+), positive control for the prey; dark = Binding

Chain of human DRAXIN, AVEXIS prey or bait protein (human) (Q8NBI3 26-349): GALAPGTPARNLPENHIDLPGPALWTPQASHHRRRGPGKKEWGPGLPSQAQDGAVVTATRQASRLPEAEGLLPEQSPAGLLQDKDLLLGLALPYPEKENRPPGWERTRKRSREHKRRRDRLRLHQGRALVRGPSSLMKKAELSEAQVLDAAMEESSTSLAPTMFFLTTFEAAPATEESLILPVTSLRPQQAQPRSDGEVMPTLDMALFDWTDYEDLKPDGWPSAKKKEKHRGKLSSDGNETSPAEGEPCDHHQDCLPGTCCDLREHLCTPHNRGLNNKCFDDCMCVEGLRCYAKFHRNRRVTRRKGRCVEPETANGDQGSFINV
Chain of zebrafish DraxinA, AVEXIS prey or bait protein (zebrafish) (Q4V9H3 other isoform, or with tags, fused parts or gaps): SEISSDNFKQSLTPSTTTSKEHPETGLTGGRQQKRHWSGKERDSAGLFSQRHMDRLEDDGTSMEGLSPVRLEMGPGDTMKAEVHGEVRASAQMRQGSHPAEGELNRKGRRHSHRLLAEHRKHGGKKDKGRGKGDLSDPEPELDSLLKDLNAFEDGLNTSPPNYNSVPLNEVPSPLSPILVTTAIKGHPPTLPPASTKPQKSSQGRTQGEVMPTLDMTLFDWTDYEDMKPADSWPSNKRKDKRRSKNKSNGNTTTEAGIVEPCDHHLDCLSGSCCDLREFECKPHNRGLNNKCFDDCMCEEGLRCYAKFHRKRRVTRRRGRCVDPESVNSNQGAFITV
Chain of human Netrin-G2, AVEXIS protein (human) (Q96CW9 18-507): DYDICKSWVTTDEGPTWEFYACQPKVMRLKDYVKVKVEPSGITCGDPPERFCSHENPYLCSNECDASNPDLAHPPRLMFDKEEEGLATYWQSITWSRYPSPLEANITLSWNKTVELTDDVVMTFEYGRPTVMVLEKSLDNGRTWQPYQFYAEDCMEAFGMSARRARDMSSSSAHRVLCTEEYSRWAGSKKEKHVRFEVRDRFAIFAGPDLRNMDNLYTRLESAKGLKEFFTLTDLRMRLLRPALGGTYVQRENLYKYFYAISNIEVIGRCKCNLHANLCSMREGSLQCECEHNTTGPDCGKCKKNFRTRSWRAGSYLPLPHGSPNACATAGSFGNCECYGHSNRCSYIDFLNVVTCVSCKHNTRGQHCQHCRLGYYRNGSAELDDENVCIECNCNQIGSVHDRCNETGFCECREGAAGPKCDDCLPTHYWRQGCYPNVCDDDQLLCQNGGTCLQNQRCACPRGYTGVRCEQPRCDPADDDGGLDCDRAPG
Chain of human Netrin-3, AVEXIS protein, O00634 28-580 (ligand; other documents disagree on this pair) (O00634 28-580): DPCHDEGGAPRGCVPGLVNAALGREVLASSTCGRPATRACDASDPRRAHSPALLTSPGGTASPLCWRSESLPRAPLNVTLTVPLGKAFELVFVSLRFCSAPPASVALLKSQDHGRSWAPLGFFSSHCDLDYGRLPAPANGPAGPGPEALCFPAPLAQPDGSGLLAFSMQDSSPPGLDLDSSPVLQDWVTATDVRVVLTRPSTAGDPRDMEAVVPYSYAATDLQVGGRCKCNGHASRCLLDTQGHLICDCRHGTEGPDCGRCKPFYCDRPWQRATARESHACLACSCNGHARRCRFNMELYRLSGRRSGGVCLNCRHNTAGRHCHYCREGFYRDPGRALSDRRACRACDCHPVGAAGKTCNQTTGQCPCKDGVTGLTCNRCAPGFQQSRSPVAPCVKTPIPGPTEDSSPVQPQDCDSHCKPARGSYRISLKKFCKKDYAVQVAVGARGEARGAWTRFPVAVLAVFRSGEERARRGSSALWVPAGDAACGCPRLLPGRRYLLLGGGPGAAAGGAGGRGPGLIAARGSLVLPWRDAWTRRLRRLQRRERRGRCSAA
Chain of human Netrin-3, AVEXIS protein (human) (O00634 28-580): as above
Chain of human DRAXIN 21 amino acid Netrin binding fragment, AVEXIS prey or bait protein (human) (peptide, as listed by the source): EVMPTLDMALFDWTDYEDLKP
Chain of human Netrin-4, AVEXIS protein (human) (Q9HB63 19-628): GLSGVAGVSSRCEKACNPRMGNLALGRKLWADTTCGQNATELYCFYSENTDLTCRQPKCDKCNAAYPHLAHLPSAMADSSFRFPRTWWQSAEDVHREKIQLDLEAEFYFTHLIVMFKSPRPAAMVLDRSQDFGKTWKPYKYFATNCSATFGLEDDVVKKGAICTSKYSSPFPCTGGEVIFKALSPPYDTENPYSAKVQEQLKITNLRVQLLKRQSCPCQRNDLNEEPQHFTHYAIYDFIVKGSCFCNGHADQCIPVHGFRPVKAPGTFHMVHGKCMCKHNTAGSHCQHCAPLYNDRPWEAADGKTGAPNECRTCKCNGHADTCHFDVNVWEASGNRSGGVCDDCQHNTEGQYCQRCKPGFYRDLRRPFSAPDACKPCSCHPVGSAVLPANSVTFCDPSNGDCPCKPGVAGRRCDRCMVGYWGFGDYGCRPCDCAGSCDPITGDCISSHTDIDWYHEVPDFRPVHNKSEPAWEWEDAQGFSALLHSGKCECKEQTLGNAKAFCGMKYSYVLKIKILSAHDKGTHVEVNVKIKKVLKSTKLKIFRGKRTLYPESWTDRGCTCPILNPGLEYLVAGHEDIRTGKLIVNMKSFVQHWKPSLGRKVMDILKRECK
Chain of human Netrin-G1, AVEXIS protein (human) (Q9Y2I2 29-510): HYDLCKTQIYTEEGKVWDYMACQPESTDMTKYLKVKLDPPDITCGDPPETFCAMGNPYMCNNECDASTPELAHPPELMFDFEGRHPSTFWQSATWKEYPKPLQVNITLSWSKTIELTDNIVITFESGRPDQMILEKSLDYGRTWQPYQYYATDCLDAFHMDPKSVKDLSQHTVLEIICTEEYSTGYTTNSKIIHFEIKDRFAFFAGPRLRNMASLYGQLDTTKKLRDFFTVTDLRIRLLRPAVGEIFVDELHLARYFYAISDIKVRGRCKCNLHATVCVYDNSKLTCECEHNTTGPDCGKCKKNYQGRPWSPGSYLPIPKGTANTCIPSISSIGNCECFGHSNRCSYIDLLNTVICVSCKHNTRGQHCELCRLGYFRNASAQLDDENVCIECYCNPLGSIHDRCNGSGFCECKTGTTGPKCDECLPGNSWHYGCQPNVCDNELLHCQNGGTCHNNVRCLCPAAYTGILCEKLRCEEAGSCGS

A486nm [1]: 0.066
Substance: human Netrin-3, AVEXIS protein, O00634 28-580 (ligand; other documents disagree on this pair)

Kd (Islr2, AVEXIS protein): 12 µM
half-life (t½) (Islr2, AVEXIS protein): 0.16 s
Substance: Vasn (Slit-like2), AVEXIS protein

A486nm [2]: 0.249
A486nm [3]: 0.136
A486nm [4]: 0.276
A486nm [5]: 0.323
A486nm [6]: 0.174
A486nm [7]: 0.235
A486nm [8]: 0.059
A486nm [9]: 0.064
A486nm [10]: 0.063
A486nm [11]: 0.064
Substance: zebrafish Netrin1a, AVEXIS bait or prey protein (ligand)

A486nm [12]: 0.067
Substance: human Netrin-3, AVEXIS protein (from UniProt O00634 28-580) (ligand)

A486nm [12]: 0.064
Substance: biotinylated recombinant human UNC5B (from UniProt Q8IZJ1 27-377) (receptor)

A486nm [13]: 0.084
A486nm [14]: 0.103
Substance: zebrafish DraxinB, AVEXIS protein (ligand)

A486nm [15]: 0.377
A486nm [12]: 0.065
A486nm [16]: 0.076
A486nm [17]: 0.064
A486nm [18]: 0.065
A486nm [19]: 0.061
A486nm [1]: 0.062
A486nm [20]: 0.064
A486nm [21]: 0.062
A486nm [22]: 0.278
Substance: biotinylated recombinant human DCC (from UniProt P43146 26-1097) (receptor)
